Here are results for 5 molecules from patent publication US20150274826A1 (ARCH ONCOLOGY, published 2015).

What all share (assay): flow cytometry on RBCs, CHO supernatant 10 ng/ml
One assay addresses T1, pig CD47 (pig, UniProt Q9GKE8 19-303).
T1 construct: whole, on cells; also called CD47 on porcine RBCs
T1 sequence (looked up): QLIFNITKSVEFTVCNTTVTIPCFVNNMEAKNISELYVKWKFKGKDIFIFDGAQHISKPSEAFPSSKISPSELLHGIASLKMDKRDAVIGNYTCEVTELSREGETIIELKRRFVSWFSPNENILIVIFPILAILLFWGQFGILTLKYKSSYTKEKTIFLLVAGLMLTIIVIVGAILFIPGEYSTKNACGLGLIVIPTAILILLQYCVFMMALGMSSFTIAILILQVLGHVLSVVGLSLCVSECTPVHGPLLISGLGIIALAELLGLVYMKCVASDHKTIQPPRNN
As for the experimental part: (§1) RBCs are incubated for 60 minutes on ice with tissue culture supernatants containing the secreted humanized antibodies at a concentration of 10 ng/ml in a solution of phosphate buffered saline, pH 7.2, 2.5 mM EDTA (PBS+E), or with various concentrations of purified antibodies. Cells are then washed with cold PBS+E, and incubated for an additional hour on ice with FITC labeled donkey anti-human antibody (Jackson Immuno Research Labs, West Grove, Pa.; Catalogue #709-096-149) in PBS+E. Cells are then washed with PBS+E, and antibody binding is analyzed using a BD FACSAria Cell Sorter (Becton Dickinson) or a C6 Accuri Flow Cytometer (Becton Dickinson). Antibody binding is quantitated by comparison of mean fluorescence values relative to that of chimeric antibody >VxP037-01LC (SEQ ID NO:7))/>VxPO37-01HC (SEQ ID NO:57). The mean fluorescence value for each antibody is divided by the mean fluorescence value for the chimeric antibody.

The target of a further assay is T2, mouse CD47 (mouse, UniProt Q61735 19-303).
T2 construct: whole, on cells; also called CD47 on mouse RBCs; CD47 on 4T1 cells
T2 sequence (looked up): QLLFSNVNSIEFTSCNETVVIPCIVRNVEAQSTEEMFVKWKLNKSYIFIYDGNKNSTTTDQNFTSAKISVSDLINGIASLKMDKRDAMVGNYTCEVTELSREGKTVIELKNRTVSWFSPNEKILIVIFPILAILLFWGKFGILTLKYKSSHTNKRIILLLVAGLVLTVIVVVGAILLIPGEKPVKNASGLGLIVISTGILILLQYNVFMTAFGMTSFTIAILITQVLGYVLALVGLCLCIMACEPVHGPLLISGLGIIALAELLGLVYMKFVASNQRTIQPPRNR
As for the experimental part: as §1

A further assay has as its target T3, dog CD47 (dog, UniProt A0A8I3PM61 19-310).
T3 construct: also called CD47 on dog RBCs
T3 sequence: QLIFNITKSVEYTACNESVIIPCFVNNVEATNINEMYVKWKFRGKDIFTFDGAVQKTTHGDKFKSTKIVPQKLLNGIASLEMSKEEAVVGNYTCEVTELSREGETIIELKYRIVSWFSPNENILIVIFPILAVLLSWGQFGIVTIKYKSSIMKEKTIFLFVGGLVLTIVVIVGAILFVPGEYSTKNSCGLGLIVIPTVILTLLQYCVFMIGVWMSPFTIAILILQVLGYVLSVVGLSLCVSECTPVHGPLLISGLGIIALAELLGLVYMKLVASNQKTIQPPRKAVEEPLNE
As to the method:
as §1

A further assay has as its target T4, human CD47 (human, UniProt Q08722 19-323).
T4 construct: whole, on cells; also called CD47 on human RBCs; CD47 on OV10 cells
As to the method:
as §1

For another assay, the target named is T5, rat CD47 (rat, UniProt P97829 19-303).
T5 construct: whole, on cells; also called CD47 on rat RBCs
T5 sequence (looked up): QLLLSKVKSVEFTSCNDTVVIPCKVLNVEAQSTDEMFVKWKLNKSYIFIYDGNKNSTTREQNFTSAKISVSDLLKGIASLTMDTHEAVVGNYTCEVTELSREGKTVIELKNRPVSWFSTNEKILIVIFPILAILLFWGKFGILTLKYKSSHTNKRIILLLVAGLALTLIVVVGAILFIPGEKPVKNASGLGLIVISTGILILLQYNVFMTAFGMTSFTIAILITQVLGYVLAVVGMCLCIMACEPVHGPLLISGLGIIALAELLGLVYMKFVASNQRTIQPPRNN
As to the method:
as §1

T4 sequence (Q08722 19-323): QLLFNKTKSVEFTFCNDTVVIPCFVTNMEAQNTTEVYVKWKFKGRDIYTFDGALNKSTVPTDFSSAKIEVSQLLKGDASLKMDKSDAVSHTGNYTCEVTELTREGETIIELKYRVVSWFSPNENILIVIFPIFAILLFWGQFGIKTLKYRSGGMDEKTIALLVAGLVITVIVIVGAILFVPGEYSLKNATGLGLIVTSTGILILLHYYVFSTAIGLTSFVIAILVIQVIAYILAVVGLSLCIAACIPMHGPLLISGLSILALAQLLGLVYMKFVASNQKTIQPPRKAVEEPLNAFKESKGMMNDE

B1: Clone 23 (pVxK7b-037-hum23-LC / pVxK7b-037-hum23-HC) (antibody, human IgG1, kappa)
heavy: not shown
light: DIVMTQTPLSLPVTPGEPASISCRSSQSLVHSNGNTYLHWYQQKPGKAPKLLIYKVSYRFSGVPDRFSGSGSGTDFTLKISRVEAEDVGVYYCSQNTHVPRTFGQGTKVEIKRTVAAPSVFIFPPSDEQLKSGTASVVCLLNNFYPREAKVQWKVDNALQSGNSQESVTEQDSKDSTYSLSSTLTLSKADYEKHKVYACEVTHQGLSSPVTKSFNRGEC
In the case of B1, the “mean fluorescence relative to chimeric antibody” value in the assay with pig CD47 amounted to 1.7 ratio; in the assay with mouse CD47, 1.4 ratio; in the assay with dog CD47 it was 1.1 ratio; with human CD47 it was 1.2 ratio; with rat CD47 it was 3.3 ratio.

B2: Clone 10 (pVxK7b-037-hum10-LC / pVxK7b-037-hum10-HC) (antibody, human IgG1, kappa, V domains shown)
VH: QVQLQESGPGLVKPSQTLSLTCTVSGYTFTNYYVFWVRQARGQRLEWIGDINPVNGDTNFNEKFKNRLTISKDTSKNQVVLTMTNMDPVDTATYYCARGGYTMDYWGQGTLVTVSS
VL: DIVMTQTPLSLPVTPGEPASISCRSSQSLVHSNGNTYLHWYLQKPGQSPQLLIYKVSYRFSGVPDRFSGSGSGTDFTLKISRVEAEDVGVYYCSQNTHVPRTFGQGTKVEIKR
Turning to B2, the “mean fluorescence relative to chimeric antibody” value with pig CD47 was found to be 1.5 ratio; with mouse CD47, 1.2 ratio; with dog CD47, 1.1 ratio; with human CD47, 1.1 ratio; in the assay with rat CD47, 2.9 ratio.

B3: Clone 9 (pVxK7b-037-hum09-LC / pVxK7b-037-hum09-HC) (antibody, human IgG1, kappa)
heavy: not shown
light: DVVMTQSPLSLPVTLGQPASISCRSSQSLVHSNGNTYLHWYQQKPGKAPKLLIYKVSYRFSGVPDRFSGSGSGTDFTLKISRVEAEDVGVYYCSQNTHVPRTFGQGTKVEIKRTVAAPSVFIFPPSDEQLKSGTASVVCLLNNFYPREAKVQWKVDNALQSGNSQESVTEQDSKDSTYSLSSTLTLSKADYEKHKVYACEVTHQGLSSPVTKSFNRGEC
notes: also called Cl 9
Turning to B3, the “mean fluorescence relative to chimeric antibody” value with pig CD47 came to 1.6 ratio; in the assay with mouse CD47 it was 1.4 ratio; with dog CD47 it was 1 ratio; with human CD47, 1.2 ratio; with rat CD47 it was 3.7 ratio.

B4: Clone 24 (pVxK7b-037-hum24-LC / pVxK7b-037-hum24-HC) (antibody, human IgG1, kappa, V domains shown)
VH: QVQLQESGPGLVKPGATVKISCKVSGYTFTNYYVFWVRQARGQRLEWIGDINPVNGDTNFNEKFKNRVTITADKSTSTAYMELSSLRSEDTAVYYCARGGYTMDYWGQGTLVTVSS
VL: AIQLTQSPSSLSASVGDRVTITCRSSQSLVHSNGNTYLHWYQQKPGQAPRLLIYKVSYRFSGVPSRFSGSGSGTEFTLTISSLQPDDFATYYCSQNTHVPRTFGQGTKVEIKR
notes: also called Cl 24
As to B4, the “mean fluorescence relative to chimeric antibody” value in the assay with pig CD47 came out at 1.1 ratio; with mouse CD47, 0.7 ratio; with dog CD47, 1 ratio; with human CD47, 0.8 ratio; in the assay with rat CD47, 1.2 ratio.

B5: Clone 4 (pVxK7b-037-hum04-LC / pVxK7b-037-hum04-HC) (antibody, human IgG1, kappa, V domains shown)
VH: QVQLQESGPGLVKPSQTLSLTCTVSGYTFTNYYVFWVRQAPGKGLEWVSDINPVNGDTNFNEKFKNRVTISVDTSKNQFSLKLSSVTAADTAVYYCARGGYTMDYWGQGTLVTVSS
VL: DIQMTQSPSSLSASVGDRVTITCRSSQSLVHSNGNTYLHWYLQKPGQSPQLLIYKVSYRFSGIPARFSGSGSGTEFTLTISSLQSEDFAVYYCSQNTHVPRTFGQGTKVEIKR
Regarding B5, the “mean fluorescence relative to chimeric antibody” value stood at 0.6 ratio with pig CD47; 0.6 ratio with mouse CD47; 0.6 ratio with dog CD47; 0.6 ratio with human CD47; 1 ratio with rat CD47.
